Measured values reported in US20230331835A1.

Target: antigens on human iPSC-derived brain microvascular endothelial cells (BMECs) (human)
Assay: flow cytometry of BMECs with phage, anti-M13 detection

Substance: phage displaying anti-botulinum neurotoxin scFv
- geometric mean (fluorescence): 3.16
